Data as given in the DeepSol protein solubility set.

Experiment: soluble on expression in E. coli; label from the status in PepcDB or PDB records

Row | Sequence | soluble on expression in E. coli
1 | GKTMKMRKFTIADASLERSPGQEADISVGNLVDERHGGPITIGYGRYAPGQSLTETMAVDDVMIVLEGRLSVSTDGETVTAGPGEIVYMPKGETVTIRSHEEGALTAYVTYPHWRPAHA | soluble
2 | GKVLDAIIQEKKSGRIPGIYGRLGDLGAIDEKYDIAISSCCHALDYIVVDSIDTAQECVNFLKKHNIGIATFIGLDKMTVWAKKMSKIQTPENTPRLFDLVKVKNEEIRQAFYFALRDTLVANNLDQATRVAYQRDRRWRVVTLQGQIIEQSGTMSGGLEHHHHHH | soluble
3 | GLDALFERAVESVAAGLNTEYSKVLEYRPADNKFLLRAGVGWQSGLVGEAAVGAGEESQAGYTLQTEEPVVVEDLRTESRFSGPSLLLDHGVVSGISVIIGTTTEPWGVLGAHTSERRPFTKDDITFVRGVANTLTNAIEREQLEGTLRQAEQRYKTLLENFP | not soluble
4 | GLDTLDRDGDGSTADADCNDFAPTIHPGAAEATLDGVDSNCDGRDSGVAEVVETFKNPGTYSSPVINFKIASPPGPGTPIYGPPRDFSGYNKSYSLAIGKTSYYDPTTGTKWNDDTITPVSDGQDIWRGWTHTGKWSFFNGKAGDKITLSVQRDAQEASLKGAHPGFILFWRPEGGPLFWAGTQDLDEGQTALPADSDTVIGHVIVQHADWTLQGLPPKADHTAPAGVDTELYPMKPDSYTMYYVDSGYDADKYVASKKLIMHPTAFKGLALNDGTAGAFTKSITLPKTGYYMLYVANVLEVDDWSVDADGKLTTTGEVWEVPAKGCWVNITISKP | soluble
5 | GLGEKKEGHFSALPSLPVGSHAKVSSPQPRGPRYAEGTFISDYSIAMDKIHQQDFVNWLLAQKGKKNDWKHNITQREARALELASQANRKEEEAVEPQSSPAKNPSDEDLLRDLLIQELLACLLDQTNLCRLRSR | soluble
6 | GLNMYVAGKATLNYLFERYMDTKYNLRENTKVNYKYMYDNYVRNTIGKRLIADIKYSDIVYFYKSLITEKGLELNTVDTIHTVIHPVFSMAVRDDVIRKNPASGVLADIKKESGKNKGIRHALTIEQQRVFMKYMIEEEQFNHWIPIFTILLGTGCRVGEFIGLRWEDVDFKQKVISINHSIAYVCYGKEDGRKSHYAISLPKTEAGIRYIPMTDEVYDVFKAEYYRQQENGFSQFSIEGMSGFIFTNRCGRIYNQQTLNKGLKRISENYNQKELIDA | not soluble
7 | GLVAHSDLDERAIEALKEFNEDGALAVLQQFKDSDLSHVQNKSAFLCGVMKTYRQREKQGTKVADSSKGPDEAKIKALLERTGYTLDVTTGQRKYGGPPPDSVYSGQQPSVGTEIFVGKIPRDLFEDELVPLFEKAGPIWDLRLMMDPLTGLNRGYAFVTFCTKEAAQEAVKLYNNHEIRSGKHIGVCISVANNRLFVGSIPKSKTKEQILEEFSKVTEGLTDVILYHQPDDKKKNRGFCFLEYEDHKTAAQARRRLMSGKVKVWGNVGTVEWADPIEDPDPEVMAKVKVLFVRNLANTVTEEILEKAFSQFGKLERVKKLKDYAFIHFDERDGAVKAMEEMNGKDLEGENIEIVFAKPPDQKRKERKAQRQAAKNQMYDDYYYYGPPHMPPPTRGRGRGGRGGYGYPPDYYGYEDYYDYYGYDYHNYRGGYEDPYYGYEDFQVGARGRGGRGARGAAPSRGRGAAPPRGRAGYSQRGGPGSARGVRGARGGAQQQRGRGQGKGVEAGPDLLQ | soluble
8 | GMAQRSILVGQIWHEGHSFNPILTREKDFLFLRGEAVLEEARASSTALSGIVKTAEALGYRCVPSISARARPGGAIEQKVFDNIVDEFVQAARMQDFDAICLDLHGATLAEHTLDTEGYLLSRLREVVGNDIMISLALDLHAYLTPQMVEQATIITSFRTTPHADIEETGVRAMTLLDSLSNETRPPRAIYSLIPFLTRGNDETWSGPLAEIGAAADRWRARSDVVDLSIFNVHPFLDVPGYGQVVLAYDNGSGAAIDACRDLSDMLWKARDEFQEQLMSVDKALEIARTSRQLLALGDQGDRVMGAGPGDSPEIARVALEHFPGLKVAVPVYDPQAVRTAREAGENATVRMAVGGAFTHSVAPLERDWTVRKLCRARFTNIGPYMAGTEADFGDAAVLTCDAVTVIVTTMAPNVHDPAFYEAVGVPLASQQAVVARAANHYKLSFADIARTITVDTPGLTAFKPHQFPFTQARPFYPLDIVQWSFAPLECNKVG | soluble
9 | GMDGASEIELVFRPHPTLMEKDDSAQTRYIKTSGNATVDHLSKYLAVRLALEELRSKGESNQMNLDTASEKQYTIYIATASGQFTVLNGSFSLELVSEKYWKVNKPMELYYA | soluble
10 | GMDKLVKYQELVKKLLTNYASDDVSDQDVEVQLILDTERNHYQWMNVGWQGLNRIYRCVIHFDIKDGKIWLQQNLTDRNPAEELVMMGVPREDIVLGLQAPYKRQYTDYGVA | soluble
11 | GMEFNHLTKQLNQLLAQDYVAFSITENPVVQMLSQASFAQIAYVMQQYSIFPKELVGFTELARRKALGAGWNGVAQELQENIDEEMGSTTGGISHYTLLADGLEEGLGVAVKNTMPSVATSKLLRTVLSLFDRQVDYVLGATYAIEATSIPELTLIVKLVEWLHEGAIPKDLQYFFSKHLDEWEIEHEAGLRTSVAAYIQPEEFGEFAAGFRAMIDAMQVWWQELAQEAISSEVVLSTAIAQHH | soluble
12 | GMEQATRTIYSEYAAYPETQGIIAVEKRQPRDSLTDQFDVLLLVITRDPSVEWTVKHYRLNTLRVSLHLVHEQVLSRWLILNANRRAVHWVSEGTIIFERNDYLTDLKKQLRNFPETERCLQMSLSFAKLLRRFQDGRNLFSRGNYYDAYTHVHHALHHLARLSVLEKGAHPEVVVWEQARLDDPDVYKLYEQLLLSEETLEQRIHLALIGLEHLLQSKVLSGGKYLFEVMRERDRPWTMHELMEESRLTELKVDLGSLVDFFIRKGLIRISYQRTKGLGVELVTYEPVV | soluble
13 | GMFASLVIPVSAQANSGEMPQEQQLAVKYMDALTEHDYKTLITFYNRDSIFFDKTANRKYTGGRFIIDFLERAHQGVLEYDFNIEHMYNAGSLVVMIGNYHFKGPGEQFGKPGKIIDVAIPAVTSLKLDMLNRRVTEHVDLIDYQTMSDQLAMQ | soluble
14 | GMFVWHEYENAAEAAQSLADAVADALQGALDEKGGAVLAVSGGRSPIAFFNALSQKDLDWKNVGITLADERIVPTNHADSNTGLVREYLLKNKAAAAVWIPMVEDGKTETELHPDAVVDYALKHYKQPDVLILGMGNDGHTASIFPKAPQFQTAIDGSAGVALVHTTPVTAPHERISMTLDAIAHTGHVFLAIQGEEKKAVFDQAAQGENREYPISLVLNHQGVNCHVFYAE | soluble
15 | GMGDSAGLPPIYADKPIELAPAKIITSFPVNTFLENLASAPDGTIFVTNHEVGEIVSITPDGNQQIHATVEGKVSGLAFTSNGDLVATGWNADSIPVVSLVKSDGTVETLLTLPDAIFLNGITPLSDTQYLTADSYRGAIWLIDVVQPSGSIWLEHPMLARSNSESVFPAANGLKRFGNFLYVSNTEKMLLLRIPVDSTDKPGEPEIFVEQTNIDDFAFDVEGNLYGATHIYNSVVRIAPDRSTTIIAQAEQGVIGSTAVAFGQTEGDCTAIYVVTNGGMFLPPPTGVVPANVVRLEVGKPGYPLG | soluble
16 | GMGNIYQITVEEKAEHQRTLSFEFSLHDDLFKLLEKVDGKMDMTPEQTQAFMVGLKLFGEVMMQQRKHPLFKEFSAPFRAFMMNLKKQ | soluble
17 | GMIDFTKSKQYTLSIRLSTDGFSFSIYNPINDNSQSLFEKEVDTSLSLTANLKNVFHESDFLSYSYKRVNIMIASKRFTMIPLELFEEEQAELLFYHNHQKRENEIVMYNILKKNNVVIIFGIDKSTYTFLNEQYPEARFYSQSTPLIEYFSIKSRLGNSKKMYASVRKDAIDIYCFERGQLLLANSFECMQTEDRIYYLLYVWKQLEFNQERDELHLTGTLSDKETLMNELKKFILQVFIMNPANNIDMQALLTCE | soluble
18 | GMISPERLRVYRFFASLTDEQLKDIALISEEKSFPTGSVIFKENSKADNLMLLLEGGVELFYSNGGAGSAANSTVCSVVPGAIFGVSSLIKPYHYTSSARATKPVRVVDINGARLREMSENNQALGQVLMNNVAAAVLARLH | soluble
19 | GMKSQWECFLQNLGVWEGSFSNFSPEGTLLNDTSSRLCLEGLNNNQTVRLTLSRSGKDDVIREFRSVGGGLLFFENGSFSEGLIQLGPFSEFGGELAFVHENRRLRLVQLFDRNGHLNGLTLIREHLAGTPVAERPLLQINDLLGEWRGQAVTIYRDLRPPDIYSTTLKIQLDDAGRLMQSTSFGERTITSTATIKGSIVLFDQDPEKQVQVLLLPDGASATSPLKVQLRQPLFLEAGWLIQSDLRQRMIRSYNDKGEWVSLTLVTEERV | soluble
20 | GMKTSVKFETIFPLTTAPLIQCITNEITCESMANALLYIDAKPIMADDPREFPQMFQQTSALVLNLGHLSQEREQSLLAASDYARQVNKLTVVDLVGYGASDIRNEVGEKLVHNQPTVVKGNLSEMRTFCQLVSHGRGVDGSPLDQSEEAIEELIQALRQQTQKFPQTVFLATGIQDVLVSQEQVIVLQNGVPELDCFTGTGDLVGALVAALLGEGNAPMTAAVAAVSYFNLCGEKAKTKSQGLADFRQNTLNQLSLLMKEKDWFEAVKGRVL | soluble
21 | GMLDNAIPQGFEDAVELRRKNRETVVKYMNTKGQDRLRRHELFVEDGCGGLWTTDTGSPIVIRGKDKLAEHAVWSLKCFPDWEWYNIKVFETDDPNHFWVECDGHGKILFPGYPEGYYENHFLHSFELDDGKIKRNREFMNVFQQLRALSIPVPQIKREGIPT | soluble
22 | GMMNTTTLDRYFDLFDASRTDEKAFDDLISLFSDEITFVLNGQEQHGIDAWKQFVRMVFTANQDIKHMYAGWVPSETGDTMETRWAVCGKSADGSVFTQDGTDIARLNADGKIVYLANVPDDTAMFNQYND | soluble
23 | GMPQPTVLLLARADLSPVGTEFTTGPIDAHDPFDSGRRTAFVDEQGIAAGIVEFGTALSVEAYPYTEMLVMHRGSVTLTSGTDSVTLSTGESAVIGRGTQVRIDAQPESLWAFCASTQASGPDKSGITALDRLALLTPSSPPDPSIMISPLPQCRSNNLFEDTASTLRIGVWDSTPYERISRPHKIHELMNLIEGRVVLSLENGSSLTVNTGDTVFVAQGAPCKWTSTGYVRKFYAVT | soluble
24 | GMQFPSIEDLRARNTMKWTRYGQGVLPLWVAESDFSTCPAVLQAITDAVQREAFGYQPDGSLLSQATAEFYADRYGYQARPEWIFPIPDVVRGLYIAIDHFTPAQSKVIVPTPAYPPFFHLLSATQREGIFIDATGGINLHDVEKGFQAGARSILLCNPYNPLGMVFAPEWLNELCDLAHRYDARVLVDEIHAPLVFDGQHTVAAGVSDTAASVCITITAPSKAWNIAGLKCAQIIFSNPSDAEHWQQLSPVIKDGASTLGLIAAEAAYRYGTDFLNQEVAYLKNNHDFLLHEIPKRIPGAKITPMQATYLMWIDFRDTTIEGSPSEFFIEKAKVAMNDGAWFGEDGTGFCRLNFATSREVLEEAIDRMAKAVSHHT | soluble
25 | GMQKLTRINDFNEVLNSRKSVKVFDENYKIPREEMDEIITKATKAPSSVNMQPWRIAVVQSDEMKEKVKESFGFNSRQLTTSSAMLIIFGDLQNYEKAEQIYGDAVEQQLMTEDIKAQLLDWILPYYKNLSREGMKDIVNIDSSLMAMQLMLTAKAHGYDTNPIGGFDKENIADIIGYDSDRYVPVLAIAIGKKAQDAHDSVRLPIDDVREFL | soluble
26 | GMREMQIMSQPEQSRLDLFIDRMVSQRACLEHAIAQTAGLSGPVYELGLGNGRTYHHLRQHVQGREIYVFERAVASHPDSTPPEAQLILGDIRETLPATLERFGATASLVHADLGGHNREKNDRFARLISPLIEPHLAQGGLMVSSDRMYFEGLEELPLPPGAVVGRCFIYRRG | soluble
